Where a chain is given by its changes, count along the chain named. Names and notes keep the numbering of the source.
Columns and labels:
Format in all cases: biochemical
GLA = molecular target: T1, GLA (Homo sapiens, UniProt P06280); assay: Effect of Migalastat on thermostability and activity of GLA (HEK293T supernatants)
T1 construct: made in house; host or cells: HEK293 / HEK293T cells, transient transfection; unpurified culture supernatant used
T1 sequence (P06280 32-429): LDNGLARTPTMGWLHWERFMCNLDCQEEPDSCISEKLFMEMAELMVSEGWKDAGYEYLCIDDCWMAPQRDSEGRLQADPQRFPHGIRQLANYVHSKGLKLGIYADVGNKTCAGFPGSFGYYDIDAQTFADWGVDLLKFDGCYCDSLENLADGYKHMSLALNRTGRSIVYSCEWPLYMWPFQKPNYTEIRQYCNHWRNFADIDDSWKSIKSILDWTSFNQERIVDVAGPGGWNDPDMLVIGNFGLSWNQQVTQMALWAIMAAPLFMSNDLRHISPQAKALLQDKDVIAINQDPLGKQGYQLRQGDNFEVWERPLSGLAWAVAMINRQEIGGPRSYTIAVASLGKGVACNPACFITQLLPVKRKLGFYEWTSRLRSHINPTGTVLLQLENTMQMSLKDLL
Protocol: GLA variants were challenged at various temperatures in the presence and absence of 1 μM 1-deoxygalactonojirimycin (Migalastat) to assess their overall stability. Supernatants from mammalian cell cultures were normalized to approximately equal activities by dilution with supernatant from a non GLA expressing culture. Diluted supernatants were added to the wells of a 96-well PCR plate (Biorad, HSP-9601). The plates were sealed and incubated at 30-54° C. for 1 h using the gradient program of a thermocycler. For the assay, 20 μL, of challenged supernatant was mixed with 30 μL, of 1 M citrate buffer pH 4.3 and 50 μL, of 4 mM MUGal in McIlvaine buffer pH 4.8. The reactions were mixed briefly and incubated at 37° C. for 90 minutes, prior to quenching with 100 μL, of 1 M sodium carbonate. Hydrolysis was analyzed using a SpectraMax® M2 microplate reader monitoring fluorescence (Ex. 355 nm, Em. 448 nm).

[1] = Thermostability of GLA variants expressed in HEK293T cells; settings: HEK293T supernatants; 30-54° C. for 1 h; residual MUGal activity
[2] = HTP-analysis of yeast culture supernatants, no challenge (MUGal hydrolysis); settings: activity of the variant/activity of Rd3BB (SEQ ID NO: 13), yeast culture supernatant
Summary of the method: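 Activity read as 4-methylumbelliferyl α-D-galactopyranoside hydrolysis: fluorescence (355/448 nm) after sodium carbonate stop, following 30-180 min at 37° C with 2 mM MUGal stock at pH 4.6–4.8. Enzyme source is unchallenged culture supernatant of INVSc1 yeast expressing GLA variants, grown 66-84 h at 30° C.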

[3] = HTP-analysis of supernatants pretreated with acid (MUGal hydrolysis); settings: challenge at pH 4.0; activity of the variant/activity of Rd3BB (SEQ ID NO: 13); yeast culture supernatant
Summary of the method: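 MUGal hydrolysis was tracked by fluorescence (Ex 355 nm, Em 448 nm) after a 30-180 min reaction at 37° C. in pH 4.8 McIlvaine/citrate buffer, stopped with 1 M sodium carbonate. Beforehand, yeast (INVSc1) culture supernatants carrying GLA variants were held 1-3 h at 37° C. in acidic McIlvaine buffer, pH 3.3-4.3.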

[4] = HTP-analysis of supernatants pretreated with base (MUGal hydrolysis); settings: challenge at pH 8.2; activity of the variant/activity of Rd3BB (SEQ ID NO: 13); yeast culture supernatant
Summary of the method: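 Fluorescence of released 4-MU (Ex 355 nm, Em 448 nm) after carbonate quench reports MUGal hydrolysis by GLA variants secreted from INVSc1 yeast. Before the acidic (pH 4.3-4.8) 30-180 min reaction at 37° C, supernatants had been pre-incubated at pH 7.0-9.7 for 1-18 h at 37° C.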

[5] = HTP-analysis of supernatants pretreated with bovine serum (MUGal hydrolysis); settings: activity of the variant/activity of Rd3BB (SEQ ID NO: 13), yeast culture supernatant
Summary of the method: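 Yeast INVSc1 culture supernatants containing secreted GLA variants were mixed with bovine serum (20:80) and held 1 h at 37° C. Serum-treated samples then reacted with MUGal (4 mM stock) in citrate/McIlvaine buffer (pH 4.3/4.8) for 180 min at 37° C., were quenched with sodium carbonate, and read by fluorescence (Ex 355, Em 448 nm).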

[6] = Optimization of signal peptide for secreted expression of GLA by S. cerevisiae
Source text: Two strategies for secreted GLA expression were utilized, using the yeast MFa signal peptide (MF-SP) or a longer leader sequence of 83 amino acids (MF-leader) to drive secretion of a yeast codon-optimized mature human GLA. Clones were expressed from a pYT-72 vector in S. cerevisiae strain INVSc1. Both approaches provided supernatants with measurable activity on the fluorogenic substrate 4-methylumbelliferyl α-D-galactopyranoside (4-MuGal). However, the construct with the yeast MFa signal peptide provided 3-fold higher activities and was used as the starting sequence for directed evolution.
S. cerevisiae transformed with Mfleader-GLA (SEQ ID NO:7), SP-GLA (SEQ ID NO:36) or a vector control were grown in HTP as described in Example 2. Cultures were grown for 48-120 h prior to harvest of the supernatant and analysis (n=6) as described in Example 2. FIG. 1 provides a graph showing the relative activity of different GLA constructs in S. cerevisiae after 2-5 days of culturing.

For `OC[C@H]1NC[C@H](O)[C@@H](O)[C@H]1O` [Migalastat, 1-deoxygalactonojirimycin], which “reduction of GLA activity in the Migalastat treated sample” value (GLA; 0.2 μM final concentration in the assay) is on record?
The value was about 60%.

And the “increase of Tm of GLA by addition of Migalastat” value (GLA; 1 μM Migalastat during temperature challenge)?
Its value is 5.5 °C.

B1: Variant 73: GLA variant; K206A relative to SEQ ID NO: 5 (protein)
chain: T1 sequence (P06280 32-429) with K206A
modifications: Synthetic Polypeptide sequence of Variant No. 73
For B1, which “increase of Tm of the enzyme” value [1] is on record?
The value was 2 °C.

B2: 299 (protein)
chain: T1 sequence (P06280 32-429) with K206A, F217R, N247D, Q302K, M322I, K343G, A350G, E367T, R373K, L397F
modifications: Synthetic Polypeptide sequence of Variant No. 299 of mature Human GLA
Which results are given for B2?
Relative Activity of GLA Variants After No Challenge (NC) [2]: + (+ = 0.5 to 1.5 relative activity over Rd3BB (SEQ ID NO: 13)); Relative Activity of GLA Variants After Challenge at pH 4.0 [3]: − (− = <0.5 relative activity to Rd3BB (SEQ ID NO: 13)); Relative Activity of GLA Variants After Challenge at pH 8.2 [4]: − (− = <0.5 relative activity to Rd3BB (SEQ ID NO: 13)); Relative Activity of GLA Variants After Challenge with Serum [5]: − (− = <0.5 relative activity to Rd3BB (SEQ ID NO: 13))

B3: 359 (protein)
chain: LDNGLARTPTMGWLHWERFMCNLDCQEEPDSCISEKLFMEMAERMVSEGWKDAGYEYLCIDDCWMAPQRDSEGRLQADPQRFPHGIRQLANYVHSKGLKFGIYADVGNKTCAGFPGSFGYYDIDAQTFADWGVDLLKFDGCYCDSLENLADGYKHMSLALNRTGRSIVYSCEWPLYMWPFIKPNYTEIRQYCNHWRNFADIDDSWASIKSILDWTSFNQETIVDVAGPGGWNDPDMLVIGNFGLSWDQQVTQMALWAIMAAPLFMSNDLRHISPQAKALLQDKDVIAINQDPLGKQGYQLRKGDNFEVWERPLSGLAWAVAVINRQEIGGPRSYTIAVASLGKGVACNPACFITQLLPVKRKLGFYNWTSRLKSHVNPTGTVLLQLENTMQMSLKDLL
modifications: Synthetic Polypeptide sequence of Variant No. 359 of mature Human GLA
For B3, which “Relative Activity of GLA Variants After No Challenge (NC)” value [2] is on record?
The value was “+ (+ = 0.5 to 1.5 relative activity over Rd3BB (SEQ ID NO: 13))”.

And the “Relative Activity of GLA Variants After Challenge at pH 4.0” value [3]?
The value was “+ (+ = 0.5 to 1.5 relative activity over Rd3BB (SEQ ID NO: 13))”.

And the “Relative Activity of GLA Variants After Challenge at pH 8.2” value [4]?
Its value is “+++ (+++ = >2.5 relative activity over Rd3BB (SEQ ID NO: 13))”.

And the “Relative Activity of GLA Variants After Challenge with Serum” value [5]?
The value was “+ (+ = 0.5 to 1.5 relative activity over Rd3BB (SEQ ID NO: 13))”.

B4: 298 (protein)
chain: T1 sequence (P06280 32-429) with K206A, F217R, N247D, L316D, M322I, A337P, A350G, K362Q, E367N, R373K
modifications: Synthetic Polypeptide sequence of Variant No. 298 of mature Human GLA
Which “Relative Activity of GLA Variants After No Challenge (NC)” value [2] does the source give for B4 here?
The value was “++ (++ = >1.5 to 2.5 relative activity over Rd3BB (SEQ ID NO: 13))”.

What about the “Relative Activity of GLA Variants After Challenge at pH 4.0” value [3] of the same molecule?
The value was “+++ (+++ = >2.5 relative activity over Rd3BB (SEQ ID NO: 13))”.

What about the “Relative Activity of GLA Variants After Challenge at pH 8.2” value [4] of the same molecule?
The value was “+++ (+++ = >2.5 relative activity over Rd3BB (SEQ ID NO: 13))”.

What about the “Relative Activity of GLA Variants After Challenge with Serum” value [5] of the same molecule?
Its value is “+++ (+++ = >2.5 relative activity over Rd3BB (SEQ ID NO: 13))”.

B5: 297 (protein)
chain: T1 sequence (P06280 32-429) with K206A, F217R, G230V, N247D, Q302K, M322I, E367N, T369S, R373K
modifications: Synthetic Polypeptide sequence of Variant No. 297 of mature Human GLA
What does the source list for B5?
Relative Activity of GLA Variants After No Challenge (NC) [2]: − (− = <0.5 relative activity to Rd3BB (SEQ ID NO: 13)); Relative Activity of GLA Variants After Challenge at pH 4.0 [3]: − (− = <0.5 relative activity to Rd3BB (SEQ ID NO: 13)); Relative Activity of GLA Variants After Challenge at pH 8.2 [4]: − (− = <0.5 relative activity to Rd3BB (SEQ ID NO: 13)); Relative Activity of GLA Variants After Challenge with Serum [5]: − (− = <0.5 relative activity to Rd3BB (SEQ ID NO: 13))

B6: SP-GLA: 19 amino acid S. cerevisae MFalpha signal peptide fused to the mature form of yeast-optimized GLA (protein)
chain: MRFPSIFTAVLFAASSALALDNGLARTPTMGWLHWERFMCNLDCQEEPDSCISEKLFMEMAELMVSEGWKDAGYEYLCIDDCWMAPQRDSEGRLQADPQRFPHGIRQLANYVHSKGLKLGIYADVGNKTCAGFPGSFGYYDIDAQTFADWGVDLLKFDGCYCDSLENLADGYKHMSLALNRTGRSIVYSCEWPLYMWPFQKPNYTEIRQYCNHWRNFADIDDSWKSIKSILDWTSFNQERIVDVAGPGGWNDPDMLVIGNFGLSWNQQVTQMALWAIMAAPLFMSNDLRHISPQAKALLQDKDVIAINQDPLGKQGYQLRQGDNFEVWERPLSGLAWAVAMINRQEIGGPRSYTIAVASLGKGVACNPACFITQLLPVKRKLGFYEWTSRLRSHINPTGTVLLQLENTMQMSLKDLL
modifications: Synthetic Polynucleotide sequence of SP-GLA (yCDS)
notes: 19 amino acid S. cerevisae MFalpha signal peptide fused to the mature form of yeast-optimized GLA
What does the source list for B6?
level of active enzyme produced in S. cerevisiae ([6]; 2-5 days of culturing, saturated after three days of growth): high level of active enzyme; supernatant activity on 4-MuGal, fold higher than MF-leader construct ([6]; S. cerevisiae INVSc1 supernatant, versus MF-leader construct): 3 fold

Reference: patent US11278600B2, “Human alpha-galactosidase variants” (Codexis, Inc., priority 2014, dated 2022)
